The supplement of paper PMC9876800

Test system: peptide library, one residue held at a place counted from the S/T acceptor
Test: relative phosphorylation of the sub-library (ratio to the mean residue at this position); higher = residue favoured
Details: human
How it was run: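 Relative sub-library phosphorylation is the ratio of each sub-library's signal to the mean residue at that position. The signal came from phosphorimaging of spots on streptavidin membranes, quantified by densitometry, after purified recombinant kinases reacted with biotinylated degenerate peptide sub-libraries in 384-well plates. Reactions held 50 μM peptide and 50 μM ATP spiked with γ-32P-ATP for 90 min under kinase-specific conditions.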

IKBKB, construct: Full length, sequence (O14920 whole entry, looked up): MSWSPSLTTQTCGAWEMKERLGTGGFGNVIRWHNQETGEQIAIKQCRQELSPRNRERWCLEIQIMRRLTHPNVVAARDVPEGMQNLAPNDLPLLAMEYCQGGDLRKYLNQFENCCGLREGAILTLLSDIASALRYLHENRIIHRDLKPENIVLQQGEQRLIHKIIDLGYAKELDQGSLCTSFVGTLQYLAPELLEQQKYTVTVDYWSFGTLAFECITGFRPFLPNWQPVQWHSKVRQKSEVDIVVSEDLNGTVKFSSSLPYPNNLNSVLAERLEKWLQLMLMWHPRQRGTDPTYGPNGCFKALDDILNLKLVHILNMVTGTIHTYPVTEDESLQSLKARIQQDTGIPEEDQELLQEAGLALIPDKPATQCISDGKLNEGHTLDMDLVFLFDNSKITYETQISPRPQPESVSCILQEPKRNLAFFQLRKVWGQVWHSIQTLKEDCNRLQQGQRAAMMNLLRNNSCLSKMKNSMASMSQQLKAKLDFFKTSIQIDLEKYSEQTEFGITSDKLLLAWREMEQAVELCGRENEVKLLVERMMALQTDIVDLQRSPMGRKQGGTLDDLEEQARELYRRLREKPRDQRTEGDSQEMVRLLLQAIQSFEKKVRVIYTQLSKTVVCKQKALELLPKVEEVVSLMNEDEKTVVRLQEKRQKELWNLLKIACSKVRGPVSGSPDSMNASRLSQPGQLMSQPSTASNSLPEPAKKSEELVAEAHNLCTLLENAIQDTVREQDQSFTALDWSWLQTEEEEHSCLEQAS

IKBKB, construct: Full length (from UniProt O14920)
relative phosphorylation
Details	at +1	at +2	at +3	at +4	at -1	at -2	at -3	at -4	at -5
A fixed	0.6	0.901	1.06	1.08	0.811	0.919	0.94	1.15	1.22
D fixed	0.469	1.2	1.65	1.46	1.1	0.397	0.912	1.57	1.71
E fixed	0.544	1.27	1.65	1.43	0.941	0.805	1.05	1.8	1.52
F fixed	1.55	0.676	1.01	0.834	0.909	2.22	1.07	0.751	0.995
G fixed	1.12	1.2	1.46	1.09	0.478	0.442	1	1.24	1.23
H fixed	0.745	1.39	1.11	0.922	1.21	1.47	1.19	0.94	1.01
I fixed	2.06	0.812	0.71	0.769	0.89	1.11	0.762	0.749	0.741
K fixed	0.268	0.805	0.68	0.827	1.03	0.408	0.878	0.741	0.714
L fixed	2.05	0.783	0.816	0.81	1.22	1.48	0.699	0.754	0.687
M fixed	1.66	0.701	0.8	0.995	1.09	1.16	0.764	0.907	0.738
N fixed	0.613	1.5	1.1	1.08	1.15	1.06	1.01	0.988	1.03
P fixed	0.228	1.13	0.931	1.43	1.06	0.371	1.31	1.17	0.973
Q fixed	0.576	1.25	0.91	1.06	0.989	0.73	0.922	0.878	0.908
R fixed	0.362	1.08	0.608	0.672	1.07	0.583	1.76	0.975	0.842
V fixed	1.38	1.1	0.688	0.738	0.998	0.762	0.843	0.804	0.89
W fixed	1.46	0.525	0.904	1.02	0.895	0.85	0.885	0.733	0.926
Y fixed	1.33	0.665	0.917	0.773	1.16	2.23	1.01	0.851	0.864
pThr fixed	0.817	1.38	0.898	1.53	1.01	1.08	1.55	1.97	1.93
pTyr fixed	1.03	1.32	1.23	1.06	1.77	4.33	2.11	1.48	1.51
